{"source": "patent US20150258217A1", "about": "“Methods of Synthesizing and Using Peg-Like Fluorochromes” (THE GENERAL HOSPITAL CORPORATION, priority 2012, published 2015)", "key": {"[1]": {"test": "Quantum yield determination", "assay_type": "physicochemical", "details": "Table 5; in PBS", "how_it_was_run": "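Relative quantum yields in PBS, probe absorbance adjusted below 0.1, references IR-783 (0.043), fluorescein (0.18), Cy3 (0.31). Excitation/emission ranges: PN(783) 730 nm/765–870 nm; PN(545) 515 nm/538–700 nm; PN(497) 450 nm/475–620 nm, maximum emission used. Triplicate, mean±SD.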"}, "[2]": {"test": "PN and peptide size (volume, diameter) by FPLC gel filtration (Superdex 200, globular protein standards)", "assay_type": "physicochemical", "details": "Table 5; globular protein equivalent molecular weight", "procedure": "DOTA-Lys-Cys(IR783)-NH2 is then dissolved in DMSO, with 2 equivalents of an NHS ester of PEG and 6 equivalents of DIPEA. The reaction was at room temperature for 5 days. Product was purified by reverse phase HPLC separation. Product molecular weight was by matrix-assisted laser desorption ionization time-of-flight mass spectrometry (MALDI-TOF MS), with product molecular volume by size exclusion FPLC using globular protein standards (GE Healthcare life science AKTApurifier 10).\nThe mass spec of low molecular weights (MW) were obtained by MS-ESI Micromass (Waters) and high MW molecules were determined through MALDI-TOF analyses at the Tufts University Core Facility. RP-HPLC (Varian ProStar detector and delivery modules) employed an eluant A (0.1% TFA/water) and eluant B (0.1% TFA and 9.9% water in acetonitrile). Probe size (volume) was determined by FPLC using an ÄKTA Purifier 10 and Superdex™ 200 10/300GL column (GE Healthcare) with a running buffer of 0.05 M sodium phosphate, 0.15 M NaCl (0.1% Tween, pH 7.2) and flow rate of 0.8 ml/min. Standards (GE Healthcare) were Ferritin, Ribonuclease A, Carbonic Anhydrase, and Conalbumin and Blue Dextran 2000. To obtain probe volumes, Mr (apparent molecular weight based on size exclusion retention) was plotted versus Kav. Kav=(Ve−Vo)/(Vt−Vo), Vt=total volume, Ve=elution volume, Vo=void volume.\nThe column was calibrated with globular protein standards, and globular protein equivalent molecular weights (in kDa) were obtained (Table 5, column 5). These were converted to PN diameters in nm using the relationship: Radius in nm=[…] where M is the molecular weight of a globular protein expressed in daltons (see Erickson, “Size and Shape of Protein Molecules at the Nanometer Level Determined by Sedimentation, Gel Filtration, and Electron Microscopy”, Biological Procedures Online 2009, 11(1): 32-50). PN's diameters ranged from 3.0 to 11.8 nm (see FIG. 23a). Using PEG's of 5 kDa and 30 kDa, selected for their low polydispersity, PN's were synthesized using IR-783, Cy3 and Fluorescein (see FIG. 22a) and their sizes determined (see FIGS. 23a, 23b, 23c). With the 5 kDa PEG and these three fluorochromes (see the magenta chromatograms in FIGS. 22a, 23b and 23c) PN diameters were 4.3 nm. With the 30 kDa PEG and these three fluorochromes (blue chromatograms, 23a, 23b, 23c), PN diameters were now 10.0 nm. For reference, the diameter of a 67 kDa albumin determined by this method was 5.4 nm."}, "[3]": {"test_system": "HT-29, a human colon carcinoma cell line", "test": "PN and peptide binding to cells (non-specific binding, FACS)", "assay_type": "cell-based", "details": "HT-29 cells, 30 min at 37° C., FACS", "procedure": "HT-29, a human colon carcinoma cell line, was from the American Tissue Culture Collection and maintained according to their instructions. Cells were seeded on 24-well plates at 5×10^5 cells/well in culture medium (RPMI 1640 with 10% FBS) the day before the assay. The day of assay, medium was removed, wells rinsed twice with DPBS (+Ca, +Mg), and 100 μl of 2% FBS/DPBS (+Ca, +Mg) added. 100 μL of Nanoprobes (2 μM) in DPBS (+Ca, +Mg) was added to cells and incubated for 30 min at 37° C. (Probe concentrations were determined spectrophotometrically (783 nm, extinction coefficient of 314 471 cm^−1 M^−1 for IR-783; 497 nm, extinction coefficient of 68 000 cm^−1 M^−1 for Fluorescein; 545 nm, extinction coefficient of 150 000 cm^−1 M^−1 for Cy3). Cells were detached by Trypsin/EDTA and assayed for fluorescence by FACS (BD 7 laser LSR2 for nanoprobes with IR-783; BD 3 laser LSR2 for nanoprobes with Fluorescein or Cy3)."}, "[4]": {"test_system": "mCherry/HT29 tumor sections", "test": "Confocal microscopy of tumor sections (tumor retention phase)", "assay_type": "in vivo, mouse", "details": "48 hours post IV injection", "procedure": "The mCherry-HT-29 tumor sample was collected at 48 hours post IV injection with PN(497)10.0, and then cryosectioned with thickness of 5 μm. The tumor section was fixed with 4% PFA, mounted with 90% glycerol/10% PBS (at pH 8.5 for best fluorescein fluorescence), and stained with DAPI. Confocal imaging was performed on a Zeiss LSM510 laser scanning confocal microscope (Zeiss Axiophot, Carl Zeiss, Jena, Germany). A 405 nm diode Laser, 488 nm argon laser, and 561 nm diode laser were used for the excitation of DAPI, fluorescein, and mCherry, respectively. A primary dichroic HFT 405/488/561 was used in combination with an LP420 emission filter for DAPI, BP505-530 for fluorescein, and LP575 for mCherry. Images were analyzed with ImageJ64."}}, "data": [{"substance": "(DOTA)Lys(PEG30K)-Cys(Cy3) [PN(545)10.0]", "values": [{"measurement": "Quant. Yield", "setting": "[1]", "value": 0.61}, {"measurement": "Volume FPLC", "setting": "[2]", "value": 435, "unit": "kDa"}, {"measurement": "Cell NSB (percent of cells with fluorescence higher than unstained cell)", "setting": "[3]", "value": 15, "unit": "%"}, {"measurement": "cellular localisation in tumor sections", "setting": "[4]", "value": "seen in mCherry/HT29 cells"}]}]}
